The results in this text go back to publication PMC12687424 (2025).

FAM = fluorescein label

The target of the assay is WT PKCβII catalytic domain (UniProt P05771-2 321-673, primed (phosphorylated) at the three PKC priming sites (T-loop, turn motif, hydrophobic motif)). Put plainly: FP; representative curve.
Sequence of WT PKCβII catalytic domain (P05771 other isoform, or with tags, fused parts or gaps): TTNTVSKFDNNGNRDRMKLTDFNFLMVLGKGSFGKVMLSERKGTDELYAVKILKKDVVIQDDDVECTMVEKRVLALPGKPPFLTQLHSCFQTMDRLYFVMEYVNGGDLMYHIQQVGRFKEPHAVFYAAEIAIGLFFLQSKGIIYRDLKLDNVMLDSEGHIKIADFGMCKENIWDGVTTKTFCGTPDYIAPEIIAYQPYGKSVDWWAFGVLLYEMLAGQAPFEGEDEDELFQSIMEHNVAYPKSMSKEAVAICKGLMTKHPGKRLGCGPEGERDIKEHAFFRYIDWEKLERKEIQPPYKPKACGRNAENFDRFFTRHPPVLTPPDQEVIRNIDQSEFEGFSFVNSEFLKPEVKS

For the molecule {FAM}-ESTVRFARKGSLRQKNVH-NH2 [Fluorescein-PSS peptide], the Kd was 39 µM.
